Results on one molecule are retold here after patent US20080267976A1 (published 2008).

By IC50 is commonly meant the concentration that gives 50% inhibition. Low values mean greater potency in that assay, high ones weaker potency in that assay.

The experiment concerns the target extracellular region of human V158 FcγRIIIa fused with glutathione S-Transferase (GST) (human;, UniProt P08637 17-208). Put plainly: competition AlphaScreen. Background: Alpha assays give light when donor and acceptor beads are brought close together.

extracellular region of human V158 FcγRIIIa fused with glutathione S-Transferase (GST), sequence (P08637 17-208 F176V): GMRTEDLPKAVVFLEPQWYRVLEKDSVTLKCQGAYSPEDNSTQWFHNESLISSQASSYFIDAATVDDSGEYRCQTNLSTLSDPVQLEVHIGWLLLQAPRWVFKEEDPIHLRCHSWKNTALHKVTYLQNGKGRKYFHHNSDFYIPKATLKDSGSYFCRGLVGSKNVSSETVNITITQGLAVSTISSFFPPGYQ

B1: H3.69_V2/L3.71 AC10 IgG(1/2) ELLGG antibody (XmAb2513) (antibody)
heavy: QVQLVQSGAEVKKPGASVKVSCKVSGYTFTDYYITWVRQAPGQALEWMGWIYPGSGNTKYSQKFQGRFVFSVDTSASTAYLQISSLKAEDTAVYYCANYGNYWFAYWGQGTLVTVSSASTKGPSVFPLAPSSKSTSGGTAALGCLVKDYFPEPVTVSWNSGALTSGVHTFPAVLQSSGLYSLSSVVTVPSSSLGTQTYICNVNHKPSNTKVDKKVEPKSCDKTHTCPPCPAPELLGGPDVFLFPPKPKDTLMISRTPEVTCVVVDVSHEDPEVQFNWYVDGVEVHNAKTKPREEQFNSTFRVVSVLTVVHQDWLNGKEYKCKVSNKALPAPEEKTISKTKGQPREPQVYTLPPSREEMTKNQVSLTCLVKGFYPSDIAVEWESNGQPENNYKTTPPMLDSDGSFFLYSKLTVDKSRWQQGNVFSCSVMHEALHNHYTQKSLSLSPGK
light: EIVLTQSPDSLAVSLGERATINCKASQSVDFDGDSYLNWYQQKPGQPPKVLIYAASTLQSGVPSRFSGSGSGTDFTLTINSLEAEDAATYYCQQSNEDPWTFGGGTKVEIKRTVAAPSVFIFPPSDEQLKSGTASVVCLLNNFYPREAKVQWKVDNALQSGNSQESVTEQDSKDSTYSLSSTLTLSKADYEKHKVYACEVTHQGLSSPVTKSFNRGEC
As for B1, the IC50 came out at 0.038 µM.
